B1: g824 (peptide)
peptide: HSQGTFTSDYSKYK([γGlu-Palmitoyl])DSRRARDFVEWLEAGG-NH2
modifications: N-terminus assumed
SMILES: CCCCCCCCCCCCCCCC(=O)N[C@@H](CCC(=O)NCCCC[C@H](NC(=O)[C@H](Cc1ccc(O)cc1)NC(=O)[C@H](CCCCN)NC(=O)[C@H](CO)NC(=O)[C@H](Cc1ccc(O)cc1)NC(=O)[C@H](CC(=O)O)NC(=O)[C@H](CO)NC(=O)[C@@H](NC(=O)[C@H](Cc1ccccc1)NC(=O)[C@@H](NC(=O)CNC(=O)[C@H](CCC(N)=O)NC(=O)[C@H](CO)NC(=O)[C@@H](N)Cc1c[nH]cn1)[C@@H](C)O)[C@@H](C)O)C(=O)N[C@@H](CC(=O)O)C(=O)N[C@@H](CO)C(=O)N[C@@H](CCCNC(=N)N)C(=O)N[C@@H](CCCNC(=N)N)C(=O)N[C@@H](C)C(=O)N[C@@H](CCCNC(=N)N)C(=O)N[C@@H](CC(=O)O)C(=O)N[C@@H](Cc1ccccc1)C(=O)N[C@H](C(=O)N[C@@H](CCC(=O)O)C(=O)N[C@@H](Cc1c[nH]c2ccccc12)C(=O)N[C@@H](CC(C)C)C(=O)N[C@@H](CCC(=O)O)C(=O)N[C@@H](C)C(=O)NCC(=O)NCC(N)=O)C(C)C)C(=O)O
B2: g823 (peptide)
peptide: HSQGTFTSDYSRYLDSK([γGlu-Palmitoyl])RARDFVEWLVAGG-NH2
modifications: N-terminus assumed
SMILES: CCCCCCCCCCCCCCCC(=O)N[C@@H](CCC(=O)NCCCC[C@H](NC(=O)[C@H](CO)NC(=O)[C@H](CC(=O)O)NC(=O)[C@H](CC(C)C)NC(=O)[C@H](Cc1ccc(O)cc1)NC(=O)[C@H](CCCNC(=N)N)NC(=O)[C@H](CO)NC(=O)[C@H](Cc1ccc(O)cc1)NC(=O)[C@H](CC(=O)O)NC(=O)[C@H](CO)NC(=O)[C@@H](NC(=O)[C@H](Cc1ccccc1)NC(=O)[C@@H](NC(=O)CNC(=O)[C@H](CCC(N)=O)NC(=O)[C@H](CO)NC(=O)[C@@H](N)Cc1c[nH]cn1)[C@@H](C)O)[C@@H](C)O)C(=O)N[C@@H](CCCNC(=N)N)C(=O)N[C@@H](C)C(=O)N[C@@H](CCCNC(=N)N)C(=O)N[C@@H](CC(=O)O)C(=O)N[C@@H](Cc1ccccc1)C(=O)N[C@H](C(=O)N[C@@H](CCC(=O)O)C(=O)N[C@@H](Cc1c[nH]c2ccccc12)C(=O)N[C@@H](CC(C)C)C(=O)N[C@H](C(=O)N[C@@H](C)C(=O)NCC(=O)NCC(N)=O)C(C)C)C(C)C)C(=O)O
B3: g867 (peptide)
peptide: HSQGTFTSDYSKYLDSK([γGlu-Palmitoyl])RARDFVAWLVAGG-NH2
modifications: N-terminus assumed
SMILES: CCCCCCCCCCCCCCCC(=O)N[C@@H](CCC(=O)NCCCC[C@H](NC(=O)[C@H](CO)NC(=O)[C@H](CC(=O)O)NC(=O)[C@H](CC(C)C)NC(=O)[C@H](Cc1ccc(O)cc1)NC(=O)[C@H](CCCCN)NC(=O)[C@H](CO)NC(=O)[C@H](Cc1ccc(O)cc1)NC(=O)[C@H](CC(=O)O)NC(=O)[C@H](CO)NC(=O)[C@@H](NC(=O)[C@H](Cc1ccccc1)NC(=O)[C@@H](NC(=O)CNC(=O)[C@H](CCC(N)=O)NC(=O)[C@H](CO)NC(=O)[C@@H](N)Cc1c[nH]cn1)[C@@H](C)O)[C@@H](C)O)C(=O)N[C@@H](CCCNC(=N)N)C(=O)N[C@@H](C)C(=O)N[C@@H](CCCNC(=N)N)C(=O)N[C@@H](CC(=O)O)C(=O)N[C@@H](Cc1ccccc1)C(=O)N[C@H](C(=O)N[C@@H](C)C(=O)N[C@@H](Cc1c[nH]c2ccccc12)C(=O)N[C@@H](CC(C)C)C(=O)N[C@H](C(=O)N[C@@H](C)C(=O)NCC(=O)NCC(N)=O)C(C)C)C(C)C)C(=O)O
B4: g840 (peptide)
peptide: HSQGTFTSDYSKYLDSERARDFVAWLEAGG-NH2
B5: g717 (peptide)
peptide: HSQGTFTSDK([γGlu-Palmitoyl])SKYLDSRRAQDFVQWLEAGG-NH2
modifications: N-terminus assumed
SMILES: CCCCCCCCCCCCCCCC(=O)N[C@@H](CCC(=O)NCCCC[C@H](NC(=O)[C@H](CC(=O)O)NC(=O)[C@H](CO)NC(=O)[C@@H](NC(=O)[C@H](Cc1ccccc1)NC(=O)[C@@H](NC(=O)CNC(=O)[C@H](CCC(N)=O)NC(=O)[C@H](CO)NC(=O)[C@@H](N)Cc1c[nH]cn1)[C@@H](C)O)[C@@H](C)O)C(=O)N[C@@H](CO)C(=O)N[C@@H](CCCCN)C(=O)N[C@@H](Cc1ccc(O)cc1)C(=O)N[C@@H](CC(C)C)C(=O)N[C@@H](CC(=O)O)C(=O)N[C@@H](CO)C(=O)N[C@@H](CCCNC(=N)N)C(=O)N[C@@H](CCCNC(=N)N)C(=O)N[C@@H](C)C(=O)N[C@@H](CCC(N)=O)C(=O)N[C@@H](CC(=O)O)C(=O)N[C@@H](Cc1ccccc1)C(=O)N[C@H](C(=O)N[C@@H](CCC(N)=O)C(=O)N[C@@H](Cc1c[nH]c2ccccc12)C(=O)N[C@@H](CC(C)C)C(=O)N[C@@H](CCC(=O)O)C(=O)N[C@@H](C)C(=O)NCC(=O)NCC(N)=O)C(C)C)C(=O)O
B6: g798 (peptide)
peptide: HSQGTFTSDK([γGlu-Palmitoyl])SKYLDSERARDFVAWLEAGG-NH2
modifications: N-terminus assumed
SMILES: CCCCCCCCCCCCCCCC(=O)N[C@@H](CCC(=O)NCCCC[C@H](NC(=O)[C@H](CC(=O)O)NC(=O)[C@H](CO)NC(=O)[C@@H](NC(=O)[C@H](Cc1ccccc1)NC(=O)[C@@H](NC(=O)CNC(=O)[C@H](CCC(N)=O)NC(=O)[C@H](CO)NC(=O)[C@@H](N)Cc1c[nH]cn1)[C@@H](C)O)[C@@H](C)O)C(=O)N[C@@H](CO)C(=O)N[C@@H](CCCCN)C(=O)N[C@@H](Cc1ccc(O)cc1)C(=O)N[C@@H](CC(C)C)C(=O)N[C@@H](CC(=O)O)C(=O)N[C@@H](CO)C(=O)N[C@@H](CCC(=O)O)C(=O)N[C@@H](CCCNC(=N)N)C(=O)N[C@@H](C)C(=O)N[C@@H](CCCNC(=N)N)C(=O)N[C@@H](CC(=O)O)C(=O)N[C@@H](Cc1ccccc1)C(=O)N[C@H](C(=O)N[C@@H](C)C(=O)N[C@@H](Cc1c[nH]c2ccccc12)C(=O)N[C@@H](CC(C)C)C(=O)N[C@@H](CCC(=O)O)C(=O)N[C@@H](C)C(=O)NCC(=O)NCC(N)=O)C(C)C)C(=O)O

Numbered stars: 1 amine (or outer) side, 2 acyl side, 3 side chain; on linkers, the order of the positions; unused ones are H or OH. Side chains are listed from the residue outwards. Ends that are not written are not given here. * marks the point of attachment. γGlu = O=C(O)[C@H](CCC(=O)[*:2])N[*:1]; Palmitoyl = CCCCCCCCCCCCCCCC(=O)*

Sequence of human GLP-1 receptor (P43220 24-463): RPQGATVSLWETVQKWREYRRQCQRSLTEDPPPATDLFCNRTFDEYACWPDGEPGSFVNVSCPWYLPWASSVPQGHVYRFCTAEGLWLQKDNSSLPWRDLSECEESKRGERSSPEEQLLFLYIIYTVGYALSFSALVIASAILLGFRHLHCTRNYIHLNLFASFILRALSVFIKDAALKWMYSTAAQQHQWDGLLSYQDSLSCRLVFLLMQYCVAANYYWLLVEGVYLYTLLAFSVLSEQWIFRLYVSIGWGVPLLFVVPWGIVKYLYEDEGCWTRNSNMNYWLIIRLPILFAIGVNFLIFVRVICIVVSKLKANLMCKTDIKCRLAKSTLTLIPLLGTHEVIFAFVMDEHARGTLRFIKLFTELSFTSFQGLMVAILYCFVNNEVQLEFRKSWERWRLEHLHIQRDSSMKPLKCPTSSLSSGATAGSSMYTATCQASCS

In the first assay the target is T1, human glucose-dependent insulinotropic peptide (gastric inhibitory polypeptide) receptor (human) (UniProt P48546).
T1 sequence (looked up): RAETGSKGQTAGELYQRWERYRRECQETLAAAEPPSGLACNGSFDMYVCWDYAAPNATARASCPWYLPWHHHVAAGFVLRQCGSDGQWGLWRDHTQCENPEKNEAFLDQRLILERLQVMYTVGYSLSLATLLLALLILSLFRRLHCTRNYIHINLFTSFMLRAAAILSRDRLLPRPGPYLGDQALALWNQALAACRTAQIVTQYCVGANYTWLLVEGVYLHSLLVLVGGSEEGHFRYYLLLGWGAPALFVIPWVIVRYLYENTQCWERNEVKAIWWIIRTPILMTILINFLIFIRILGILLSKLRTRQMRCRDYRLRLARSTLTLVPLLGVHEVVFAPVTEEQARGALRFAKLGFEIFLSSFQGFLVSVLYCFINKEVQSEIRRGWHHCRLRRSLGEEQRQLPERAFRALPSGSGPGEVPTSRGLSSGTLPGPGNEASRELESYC
Put plainly: cell-based or functional assay.
For B1, the cAMP EC50 (assay 1) was found to be 57.4 nM.

Molecule B2 had a cAMP EC50 (assay 1) of 84.2 nM.

As for B3, the cAMP EC50 (assay 1) is 41.7 nM.

Regarding B4, the cAMP EC50 (assay 1) was found to be 102 nM.

In turn, B5 had a cAMP EC50 (assay 1) of 1.48 nM.

In turn, B6 had a cAMP EC50 (assay 1) of 1.51 nM.

A further assay concerns the target human GLP-1 receptor (human, UniProt P43220 24-463). Put plainly: cell-based or functional assay.
On to B1, for which the cAMP EC50 (assay 1) amounted to 0.0471 nM.

Take B2: the cAMP EC50 (assay 1) came to 0.0973 nM.

In turn, B3 returned a cAMP EC50 (assay 1) of 0.0448 nM.

B4 returned a cAMP EC50 (assay 1) of 0.145 nM.

Turning to B5, the cAMP EC50 (assay 1) is 0.00577 nM.

In the case of B6, the cAMP EC50 (assay 1) was 0.00907 nM.

The target of the next assay is human glucagon receptor (human, UniProt P47871 26-477). As to the kind of experiment: cell-based or functional assay.
Sequence of human glucagon receptor (P47871 26-477): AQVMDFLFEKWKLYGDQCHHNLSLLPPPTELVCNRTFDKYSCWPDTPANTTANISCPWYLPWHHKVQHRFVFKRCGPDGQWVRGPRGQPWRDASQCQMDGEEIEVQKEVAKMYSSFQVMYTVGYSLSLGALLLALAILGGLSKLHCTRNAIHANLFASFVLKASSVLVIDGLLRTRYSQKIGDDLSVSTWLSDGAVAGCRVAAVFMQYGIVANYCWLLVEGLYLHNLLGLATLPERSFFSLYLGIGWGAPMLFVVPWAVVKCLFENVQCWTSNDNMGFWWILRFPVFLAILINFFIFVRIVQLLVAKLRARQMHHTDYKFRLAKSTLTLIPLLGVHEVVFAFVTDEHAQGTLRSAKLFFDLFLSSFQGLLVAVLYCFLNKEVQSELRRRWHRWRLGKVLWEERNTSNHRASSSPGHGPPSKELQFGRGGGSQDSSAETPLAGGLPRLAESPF
Turning to B1, the cAMP EC50 (assay 1) was 0.00105 nM.

B2: the cAMP EC50 (assay 1) worked out at 0.00948 nM.

Turning to B3, the cAMP EC50 (assay 1) was determined as 0.00704 nM.

B4 gave a cAMP EC50 (assay 1) of 0.0053 nM.

Consider B5, for which the cAMP EC50 (assay 1) amounted to 0.000455 nM.

In turn, B6 gave a cAMP EC50 (assay 1) of 0.00051 nM.
